The results in this text go back to patent US20260210939A1, “MODIFIED OLFACTORY RECEPTORS” (GIVAUDAN SA, priority 2022, published 2026).

The target in the assay is T1, OR7C1 (Homo sapiens, UniProt O76099, D296E/G302K/M297V/R299D/T295K/V126I).
T1 construct: Improved functional expression of modified OR-genes containing the truncated, optimized C-terminus; expressed in transfected cells; host or cells: HEK293T stably expressing human RTP1S(V227I) and RTP2(L220R)
T1 sequence (O76099 with tags, fused parts or gaps V126I/T295K/D296E/M297V/R299D/G302K): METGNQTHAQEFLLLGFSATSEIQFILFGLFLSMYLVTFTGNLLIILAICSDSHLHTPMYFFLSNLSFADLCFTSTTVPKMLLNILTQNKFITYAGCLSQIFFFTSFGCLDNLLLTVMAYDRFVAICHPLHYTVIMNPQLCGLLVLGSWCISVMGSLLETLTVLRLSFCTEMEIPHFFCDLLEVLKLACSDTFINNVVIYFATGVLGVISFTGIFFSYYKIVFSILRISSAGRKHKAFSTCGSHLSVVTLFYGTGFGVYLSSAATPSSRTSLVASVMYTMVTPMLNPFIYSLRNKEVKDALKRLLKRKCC
The assay is described as follows: CRE-luciferase assay, HEK293T cells expressing OR7C1 (wild-type / modified C-terminus). The class given is cell-based. Particulars: OR7C1 variant, 1 μM Ambermax. The source says:
To test for possible variants of the sequence […]CC (SEQ ID NO: 86) leading to similar improved functional expression, different point mutations were introduced into the first 16 amino acids of this sequence (corresponding to […], SEQ ID NO: 10) and the variants were fused after the TM7 with OR7C1. […] The test concentrations were selected to fall into the range of partial activity of the wild-type sequence.
On to Gly Gly, for which the “% of the activation by the optimized sequence RNKEVKDALKRLLKRKCC” value (shortened to “% of the activation”) worked out at 128.9%.

With Gly Leu, the “% of the activation” value is on record as 91.4%.

In the case of His Asp, the “% of the activation” value is recorded as 1.6%.

For the substance His Pro, the “% of the activation” value was found to be 114.6%. Ile Ala: the “% of the activation” value is given as 0.0%. In the case of Lys Ala it was 3.5%. Turning to Phe Arg, the “% of the activation” value stood at 181.7%. As to Phe Phe, the “% of the activation” value worked out at 103.8%. In the case of Pro Ala it was 75.6%. Pro Arg: the “% of the activation” value is given as 142.3%. With Pro Gln, the “% of the activation” value was 211.8%. Turning to Pro Gly, the “% of the activation” value turned out to be 111.9%. For Pro Pro, the “% of the activation” value is 36.2%.

For “SEQ ID NO: 87 (RNREVKDALKRLLKRKCC; source 1..18: note = C-terminal domain sequence)”, the “% of the activation” value was determined as 119.1%. Turning to “SEQ ID NO: 88 (RNKEIKDALKRLLKRKCC; source 1..18: note = C-terminal domain sequence)”, the “% of the activation” value amounted to 66.5%. In the case of “SEQ ID NO: 89 (RNKEMKDALKRLLKRKCC; source 1..18: note = C-terminal domain sequence)” it was 76.7%. Take “SEQ ID NO: 90 (RNKEVRDALKRLLKRKCC; source 1..18: note = C-terminal domain sequence)”: the “% of the activation” value is reported as 117.4%. As to “SEQ ID NO: 91 (RNKEVKKALKRLLKRKCC; source 1..18: note = C-terminal domain sequence)”, the “% of the activation” value worked out at 140.8%. As to “SEQ ID NO: 92 (RNKEVKEALKRLLKRKCC; source 1..18: note = C-terminal domain sequence)”, the “% of the activation” value was found to be 81.3%. In the case of “SEQ ID NO: 93 (RNKEVKNALKRLLKRKCC; source 1..18: note = C-terminal domain sequence)” it was 95.3%; in that of “SEQ ID NO: 94 (RNKEVKRALKRLLKRKCC; source 1..18: note = C-terminal domain sequence)”, 176.6%. With “SEQ ID NO: 95 (RNKEVKVALKRLLKRKCC; source 1..18: note = C-terminal domain sequence)”, the “% of the activation” value is recorded as 122.1%. As to “SEQ ID NO: 96 (RNKEVKAALKRLLKRKCC; source 1..18: note = C-terminal domain sequence)”, the “% of the activation” value was 115.3%. For “SEQ ID NO: 97 (RNKEVKQALKRLLKRKCC; source 1..18: note = C-terminal domain sequence)” the value was 128.4%; for “SEQ ID NO: 98 (RNKEVKDAVKRLLKRKCC; source 1..18: note = C-terminal domain sequence)”, 120.1%. For “SEQ ID NO: 99 (RNKEVKDAIKRLLKRKCC; source 1..18: note = C-terminal domain sequence)” the value was 174.6%; for “SEQ ID NO: 100 (RNKEVKDALRRLLKRKCC; source 1..18: note = C-terminal domain sequence)”, 86.0%. Take “SEQ ID NO: 101 (RNKEVKDALKKLLKRKCC; source 1..18: note = C-terminal domain sequence)”: the “% of the activation” value stood at 86.8%. With “SEQ ID NO: 102 (RNKEVKDALKRLIKRKCC; source 1..18: note = C-terminal domain sequence)”, the “% of the activation” value was 88.6%. In the case of “SEQ ID NO: 103 (RNKEVKDALKRLFKRKCC; source 1..18: note = C-terminal domain sequence)” it was 207.1%; in that of “SEQ ID NO: 104 (RNKEVKDALKRLLRRKCC; source 1..18: note = C-terminal domain sequence)”, 96.3%; in that of “SEQ ID NO: 105 (RNKEVKDALKRLLKKKCC; source 1..18: note = C-terminal domain sequence)”, 106.7%. In the case of “SEQ ID NO: 106 (RNKEVKDALKRLLKRRCC; source 1..18: note = C-terminal domain sequence)” it was 104.1%. As for “SEQ ID NO: 107 (RNKDVKDALKRLLKRKCC; source 1..18: note = C-terminal domain sequence)”, the “% of the activation” value is given as 53.2%. As for “SEQ ID NO: 108 (RNKQVKDALKRLLKRKCC; source 1..18: note = C-terminal domain sequence)”, the “% of the activation” value came out at 42.0%. With “SEQ ID NO: 109 (RNKELKDALKRLLKRKCC; source 1..18: note = C-terminal domain sequence)”, the “% of the activation” value is 43.8%. In the case of “SEQ ID NO: 110 (RNKEVKGALKRLLKRKCC; source 1..18: note = C-terminal domain sequence)” it was 41.6%; in that of “SEQ ID NO: 111 (RNKEVKDALHRLLKRKCC; source 1..18: note = C-terminal domain sequence)”, 44.4%; in that of “SEQ ID NO: 112 (RNKEVKDALKRILKRKCC; source 1..18: note = C-terminal domain sequence)”, 53.2%. As to “SEQ ID NO: 113 (RNKEVKDALKRLLGRKCC; source 1..18: note = C-terminal domain sequence)”, the “% of the activation” value came out at 63.2%. For the substance “SEQ ID NO: 119 (RNKEVKDALRKLLKRKCC; source 1..18: note = C-terminal domain sequence)”, the “% of the activation” value turned out to be 157.1%. Consider “SEQ ID NO: 120 (RNKEVKDALKRLLRRRCC; source 1..18: note = C-terminal domain sequence)”, for which the “% of the activation” value was 90.4%. For “SEQ ID NO: 123 (RNKEVKRALKRLLKRKRR; source 1..18: note = C-terminal domain sequence)” the value was 312.9%; for “SEQ ID NO: 124 (RNKEVKRALKRLLKRKYP; source 1..18: note = C-terminal domain sequence)”, 239.7%; for “SEQ ID NO: 125 (RNKEVKRALKRLLKRKRF; source 1..18: note = C-terminal domain sequence)”, 254.2%.

“SEQ ID NO: 126 (RNKEVKRALKRLLKRKFK; source 1..18: note = C-terminal domain sequence)”: the “% of the activation” value amounted to 280.9%.

As for “SEQ ID NO: 127 (RNKEVKKALKRLLKRKRR; source 1..18: note = C-terminal domain sequence)”, the “% of the activation” value is recorded as 308.5%. Take “SEQ ID NO: 128 (RNKEVKKALKRLLKRKYP; source 1..18: note = C-terminal domain sequence)”: the “% of the activation” value was 206.9%. Turning to “SEQ ID NO: 129 (RNKEVKKALKRLLKRKRF; source 1..18: note = C-terminal domain sequence)”, the “% of the activation” value is on record as 294.8%. For “SEQ ID NO: 130 (RNKEVKKALKRLLKRKFK; source 1..18: note = C-terminal domain sequence)”, the “% of the activation” value is 286.4%. In the case of “SEQ ID NO: 154 (RNKEVKDALKRLLKRKCRRRR; source 1..21: note = C-terminal domain sequence)”, the “% of the activation” value was determined as 263.5%. For “SEQ ID NO: 157 (RNKEVKDALKRLLKRKCRRRRR; source 1..22: note = C-terminal domain sequence)”, the “% of the activation” value is on record as 204.3%. Turning to “SEQ ID NO: 158 (RNKEVKDALKRLLKRKCRRRKK; source 1..22: note = C-terminal domain sequence)”, the “% of the activation” value is listed as 168.8%. “SEQ ID NO: 186 (KNKEVKDALKRLLKRKCC; source 1..18: note = C-terminal domain sequence)”: the “% of the activation” value amounted to 26.0%. “SEQ ID NO: 187 (RTKEVKDALKRLLKRKCC; source 1..18: note = C-terminal domain sequence)”: the “% of the activation” value is 3.3%. As to “SEQ ID NO: 188 (RQKEVKDALKRLLKRKCC; source 1..18: note = C-terminal domain sequence)”, the “% of the activation” value is listed as 28.5%.
